Paper PMC10208028 (Chemical Science, 2023)

Experiments:
amyloid-β 42 [1] = target: T1, amyloid-β 42 (UniProt P05067 672-713); assay: NMR titration
amyloid-β 42 [2] = target: T1, amyloid-β 42; assay: native MS

B1: 15N-labeled Cyt c with 104 amino acid residues (natural protein)
chain: not shown
modifications: 15N-labeled; covalently attached heme group
B1: binds (amyloid-β 42 [1]).

B2: Cytochrome c (natural protein)
chain: not shown
modifications: covalently attached heme group
B2 was tested, and the “stoichiometry N” value (amyloid-β 42 [2]) was 1 Cyt c : Aβ42.
